Tests used:
[1] = molecular target: T1, His-tagged human Bin1 isoform 8, wild type, full length (human, UniProt O00499-8 1-454); assay: pull-down
T1 sequence: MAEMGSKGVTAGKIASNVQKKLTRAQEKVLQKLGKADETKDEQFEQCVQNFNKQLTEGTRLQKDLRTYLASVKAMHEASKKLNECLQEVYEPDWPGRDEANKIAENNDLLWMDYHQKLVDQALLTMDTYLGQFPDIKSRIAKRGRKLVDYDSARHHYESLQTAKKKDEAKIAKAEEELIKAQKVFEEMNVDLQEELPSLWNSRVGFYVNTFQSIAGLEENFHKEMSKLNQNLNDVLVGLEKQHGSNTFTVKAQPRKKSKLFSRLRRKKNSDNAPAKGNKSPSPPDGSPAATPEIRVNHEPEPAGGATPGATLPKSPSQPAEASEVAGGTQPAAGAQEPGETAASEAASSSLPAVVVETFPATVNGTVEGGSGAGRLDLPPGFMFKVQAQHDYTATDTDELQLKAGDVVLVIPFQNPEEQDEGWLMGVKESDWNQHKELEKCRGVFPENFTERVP

[2] = molecular target: T2, His-tagged human Bin1 isoform 8 K436X (CNM-associated, truncated SH3 domain) (human, UniProt O00499-8 1-435); assay: pull-down
T2 sequence: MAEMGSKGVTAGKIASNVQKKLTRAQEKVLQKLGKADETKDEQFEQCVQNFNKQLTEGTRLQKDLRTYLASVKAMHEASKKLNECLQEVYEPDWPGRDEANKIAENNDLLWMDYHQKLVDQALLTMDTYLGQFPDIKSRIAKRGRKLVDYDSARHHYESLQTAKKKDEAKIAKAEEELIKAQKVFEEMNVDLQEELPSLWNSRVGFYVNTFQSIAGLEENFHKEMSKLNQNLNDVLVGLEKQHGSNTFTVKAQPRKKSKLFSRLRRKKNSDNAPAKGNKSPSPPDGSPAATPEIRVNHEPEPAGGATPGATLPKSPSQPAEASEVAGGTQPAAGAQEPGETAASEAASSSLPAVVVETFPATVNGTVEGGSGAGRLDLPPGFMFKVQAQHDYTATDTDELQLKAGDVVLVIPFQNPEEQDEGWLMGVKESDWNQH

Kd [1]: 0.18 µM | Kd [2]: 0.267 µM
B1: GST-tagged PRD domain of Dyn2 (domain or fragment)
chain: PVPPPVDDTWLQSASSHSPTPQRRPVSSIHPPGRPPAVRGPTPGPPLIPVPVGAAASFSAPPIPSRPGPQSVFANSDLFPAPPQIPSRPVRIPPGIPPGVPSRRPPAAPSRPTIIRPAEPSLLD

— publication doi:10.1101/2021.08.23.457303 (bioRxiv, 2021)
